Patent publication US20140363428A1 (Chugai, published 2014)

Molecular target: T1, soluble human FcRn (human, UniProt P55899 24-297; P61769 21-119)
T1 construct: Heterodimer of alpha chain and beta2-microglobulin; also called hFcRn
Test: SPR (Biacore), pH 7.0, 25 C;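 note: antibodies captured on a protein L-coated CM4 chip with human FcRn injected as analyte, KD obtained from ka and kd fitted to sensorgrams, in sodium phosphate buffer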

T1 sequence (P55899 24-297 limits assumed, chain 1 of 2): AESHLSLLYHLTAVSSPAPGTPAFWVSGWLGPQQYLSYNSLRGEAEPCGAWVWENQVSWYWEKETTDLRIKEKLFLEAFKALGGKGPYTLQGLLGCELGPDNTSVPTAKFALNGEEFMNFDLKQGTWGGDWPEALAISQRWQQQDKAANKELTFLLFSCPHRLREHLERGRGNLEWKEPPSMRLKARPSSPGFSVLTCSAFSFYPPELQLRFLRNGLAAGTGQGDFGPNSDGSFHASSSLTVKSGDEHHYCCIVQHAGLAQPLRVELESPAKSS
T1 sequence (P61769 21-119 limits assumed, chain 2 of 2): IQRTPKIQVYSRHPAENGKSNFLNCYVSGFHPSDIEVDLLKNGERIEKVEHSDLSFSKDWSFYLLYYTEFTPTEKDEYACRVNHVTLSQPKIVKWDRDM

Row | Binder | Kd
1 | IgG1-F1375 (antibody) heavy: QVQLQESGPGLVKPSETLSLTCAVSGHSISHDHAWSWVRQPPGEGLEWIGFISYSGITNYNPSLQGRVTISRDNSKNTLYLQMNSLRAEDTAVYYCARSLARTTAMDYWGEGTLVTVSSASTKGPSVFPLAPSSKSTSGGTAALGCLVKDYFPEPVTVSWNSGALTSGVHTFPAVLQSSGLYSLSSVVTVPSSSLGTQTYICNVNHKPSNTKVDKKVEPKSCDKTHTCPPCPAPELRGGPKVFLFPPKPKDTLYITRTPEVTCVVVDVSHEDPEVKFNWYVDGVEVHNAKTKPREEQYNSTYRVVSVLTVLHQDWLNGKEYKCKVSNKALPAPIEKTISKAKGQPREPQVYTLPPSRDELTKNQVSLTCLVKGFYPSDIAVEWESNGQPENNYKTTPPVLDSDGSFFLYSKLTVDKSRWQQGNVFSCSVMHEALHYHVTQKSLSLSP light: not shown | 100 nM
2 | IgG1-F1377 (antibody) heavy: QVQLQESGPGLVKPSETLSLTCAVSGHSISHDHAWSWVRQPPGEGLEWIGFISYSGITNYNPSLQGRVTISRDNSKNTLYLQMNSLRAEDTAVYYCARSLARTTAMDYWGEGTLVTVSSASTKGPSVFPLAPSSKSTSGGTAALGCLVKDYFPEPVTVSWNSGALTSGVHTFPAVLQSSGLYSLSSVVTVPSSSLGTQTYICNVNHKPSNTKVDKKVEPKSCDKTHTCPPCPAPELRGGPKVFLFPPKPKDTLYISREPEVTCVVVDVSHEDPEVKFNWYVDGVEVHNAKTKPREEQYNSTYRVVSVLTVLHQDWLNGKEYKCKVSNKALPAPIEKTISKAKGQPREPQVYTLPPSRDELTKNQVSLTCLVKGFYPSDIAVEWESNGQPENNYKTTPPVLDSDGSFFLYSKLTVDKSRWQQGNVFSCSVMHEALHYHVTQKSLSLSP light: not shown | 83 nM
3 | IgG1-F1422 (antibody) heavy: QVQLQESGPGLVKPSETLSLTCAVSGHSISHDHAWSWVRQPPGEGLEWIGFISYSGITNYNPSLQGRVTISRDNSKNTLYLQMNSLRAEDTAVYYCARSLARTTAMDYWGEGTLVTVSSASTKGPSVFPLAPSSKSTSGGTAALGCLVKDYFPEPVTVSWNSGALTSGVHTFPAVLQSSGLYSLSSVVTVPSSSLGTQTYICNVNHKPSNTKVDKKVEPKSCDKTHTCPPCPAPELRGGPKVFLFPPKPKDTLYISREPEVTCVVVDVSHEDPEVKFNWYVDGVEVHNAKTKPREEQYNSTYRVVSVLTPLHQDWLNGKEYKCKVSNKALPAPIEKTISKAKGQPREPQVYTLPPSRDELTKNQVSLTCLVKGFYPSDIAVEWESNGQPENNYKTTPPVLDSDGSFFLYSKLTVDKSRWQQGNVFSCSVMHEALDYHVTRKELSLSP light: not shown | 19 nM
4 | IgG1-F1421 (antibody) heavy: QVQLQESGPGLVKPSETLSLTCAVSGHSISHDHAWSWVRQPPGEGLEWIGFISYSGITNYNPSLQGRVTISRDNSKNTLYLQMNSLRAEDTAVYYCARSLARTTAMDYWGEGTLVTVSSASTKGPSVFPLAPSSKSTSGGTAALGCLVKDYFPEPVTVSWNSGALTSGVHTFPAVLQSSGLYSLSSVVTVPSSSLGTQTYICNVNHKPSNTKVDKKVEPKSCDKTHTCPPCPAPELLGGPSVFLFPPKPKDTLMISRTPEVTCVVVDVSHEDPEVKFNWYVDGVEVHNAKTKPREEQYNSTYRVVSVLTPLHQDWLNGKEYKCKVSNKALPAPIEKTISKAKGQPREPQVYTLPPSRDELTKNQVSLTCLVKGFYPSDIAVEWESNGQPENNYKTTPPVLDSDGSFFLYSKLTVDKSRWQQGNVFSCSVLHEALHWHYTQKSLSLSP light: not shown | 32 nM
5 | IgG1-F1414 (antibody) heavy: QVQLQESGPGLVKPSETLSLTCAVSGHSISHDHAWSWVRQPPGEGLEWIGFISYSGITNYNPSLQGRVTISRDNSKNTLYLQMNSLRAEDTAVYYCARSLARTTAMDYWGEGTLVTVSSASTKGPSVFPLAPSSKSTSGGTAALGCLVKDYFPEPVTVSWNSGALTSGVHTFPAVLQSSGLYSLSSVVTVPSSSLGTQTYICNVNHKPSNTKVDKKVEPKSCDKTHTCPPCPAPELRGGPKVFLFPPKPKDTLYITREPEVTCVVVDVSHEDPEVKFNWYVDGVEVHNAKTKPREEQYNSTYRVVSVLQVLHQDWLNGKEYKCKVSNKALPAPIEKTISKAKGQPREPQVYTLPPSRDELTKNQVSLTCLVKGFYPSDIAVEWESNGQPENNYKTTPPVLDSDGSFFLYSKLTVDKSRWQQGNVFSCSVMHEALDYHVTKKELSLSP light: not shown | 56 nM
6 | IgG1-F1376 (antibody) heavy: QVQLQESGPGLVKPSETLSLTCAVSGHSISHDHAWSWVRQPPGEGLEWIGFISYSGITNYNPSLQGRVTISRDNSKNTLYLQMNSLRAEDTAVYYCARSLARTTAMDYWGEGTLVTVSSASTKGPSVFPLAPSSKSTSGGTAALGCLVKDYFPEPVTVSWNSGALTSGVHTFPAVLQSSGLYSLSSVVTVPSSSLGTQTYICNVNHKPSNTKVDKKVEPKSCDKTHTCPPCPAPELRGGPKVFLFPPKPKDTLYITREPEVTCVVVDVSHEDPEVKFNWYVDGVEVHNAKTKPREEQYNSTYRVVSVLTVLHQDWLNGKEYKCKVSNKALPAPIEKTISKAKGQPREPQVYTLPPSRDELTKNQVSLTCLVKGFYPSDIAVEWESNGQPENNYKTTPPVLDSDGSFFLYSKLTVDKSRWQQGNVFSCSVMHEALHYHVTQKSLSLSP light: not shown | 91 nM
7 | IgG1-F1425 (antibody) heavy: QVQLQESGPGLVKPSETLSLTCAVSGHSISHDHAWSWVRQPPGEGLEWIGFISYSGITNYNPSLQGRVTISRDNSKNTLYLQMNSLRAEDTAVYYCARSLARTTAMDYWGEGTLVTVSSASTKGPSVFPLAPSSKSTSGGTAALGCLVKDYFPEPVTVSWNSGALTSGVHTFPAVLQSSGLYSLSSVVTVPSSSLGTQTYICNVNHKPSNTKVDKKVEPKSCDKTHTCPPCPAPELRGGPKVFLFPPKPKDTLYISREPEVTCVVVDVSHEDPEVKFNWYVDGVEVHNAKTKPREEQYNSTYRVDSVLTPLHQDWLNGKEYKCKVSNKALPAPIEKTISKAKGQPREPQVYTLPPSRDELTKNQVSLTCLVKGFYPSDIAVEWESNGQPENNYKTTPPVLDSDGSFFLYSKLTVDKSRWQQGNVFSCSVMHEALDYHVTRKELSLSP light: not shown | 19 nM
8 | IgG1-F1411 (antibody) heavy: QVQLQESGPGLVKPSETLSLTCAVSGHSISHDHAWSWVRQPPGEGLEWIGFISYSGITNYNPSLQGRVTISRDNSKNTLYLQMNSLRAEDTAVYYCARSLARTTAMDYWGEGTLVTVSSASTKGPSVFPLAPSSKSTSGGTAALGCLVKDYFPEPVTVSWNSGALTSGVHTFPAVLQSSGLYSLSSVVTVPSSSLGTQTYICNVNHKPSNTKVDKKVEPKSCDKTHTCPPCPAPELLGGPSVFLFPPKPKDTLMISRTPEVTCVVVDVSHEDPEVKFNWYVDGVEVHNAKTKPREEQYNSTYRVVSVLTPLHQDWLNGKEYKCKVSNKALPAPVEKTISKAKGQPREPQVYTLPPSRDELTKNQVSLTCLVKGFYPSDIAVEWESNGQPENNYKTTPPVLDSDGSFFLYSKLTVDKSRWQQGNVFSCSVLHEALHSHYTQKSLSLSP light: not shown | 170 nM
9 | IgG1-F1423 (antibody) heavy: QVQLQESGPGLVKPSETLSLTCAVSGHSISHDHAWSWVRQPPGEGLEWIGFISYSGITNYNPSLQGRVTISRDNSKNTLYLQMNSLRAEDTAVYYCARSLARTTAMDYWGEGTLVTVSSASTKGPSVFPLAPSSKSTSGGTAALGCLVKDYFPEPVTVSWNSGALTSGVHTFPAVLQSSGLYSLSSVVTVPSSSLGTQTYICNVNHKPSNTKVDKKVEPKSCDKTHTCPPCPAPELRGGPKVFLFPPKPKDTLYISREPEVTCVVVDVSHEDPEVKFNWYVDGVEVHNAKTKPREEQYNSTYRDVSVLTPLHQDWLNGKEYKCKVSNKALPAPIEKTISKAKGQPREPQVYTLPPSRDELTKNQVSLTCLVKGFYPSDIAVEWESNGQPENNYKTTPPVLDSDGSFFLYSKLTVDKSRWQQGNVFSCSVMHEALDYHVTRKELSLSP light: not shown | 16 nM
10 | IgG1-F1418 (antibody) heavy: QVQLQESGPGLVKPSETLSLTCAVSGHSISHDHAWSWVRQPPGEGLEWIGFISYSGITNYNPSLQGRVTISRDNSKNTLYLQMNSLRAEDTAVYYCARSLARTTAMDYWGEGTLVTVSSASTKGPSVFPLAPSSKSTSGGTAALGCLVKDYFPEPVTVSWNSGALTSGVHTFPAVLQSSGLYSLSSVVTVPSSSLGTQTYICNVNHKPSNTKVDKKVEPKSCDKTHTCPPCPAPELRGGPKVFLFPPKPKDTLYITREPEVTCVVVDVSHEDPEVKFNWYVDGVEVHNAKTKPREEQYNSTYRVVSVLTVLHQDWLNGKEYKCKVSNKALPAPIEKTISKAKGQPREPQVYTLPPSRDELTKNQVSLTCLVKGFYPSDIAVEWESNGQPENNYKTTPPVLDSDGSFFLYSKLTVDKSRWQQGNVFSCSVMHEALDWHVTRKELSLSP light: not shown | 75 nM
11 | IgG1-F1424 (antibody) heavy: QVQLQESGPGLVKPSETLSLTCAVSGHSISHDHAWSWVRQPPGEGLEWIGFISYSGITNYNPSLQGRVTISRDNSKNTLYLQMNSLRAEDTAVYYCARSLARTTAMDYWGEGTLVTVSSASTKGPSVFPLAPSSKSTSGGTAALGCLVKDYFPEPVTVSWNSGALTSGVHTFPAVLQSSGLYSLSSVVTVPSSSLGTQTYICNVNHKPSNTKVDKKVEPKSCDKTHTCPPCPAPELRGGPKVFLFPPKPKDTLYISREPEVTCVVVDVSHEDPEVKFNWYVDGVEVHNAKTKPREEQYNSTYREVSVLTPLHQDWLNGKEYKCKVSNKALPAPIEKTISKAKGQPREPQVYTLPPSRDELTKNQVSLTCLVKGFYPSDIAVEWESNGQPENNYKTTPPVLDSDGSFFLYSKLTVDKSRWQQGNVFSCSVMHEALDYHVTRKELSLSP light: not shown | 16 nM
12 | IgG1-F1415 (antibody) heavy: QVQLQESGPGLVKPSETLSLTCAVSGHSISHDHAWSWVRQPPGEGLEWIGFISYSGITNYNPSLQGRVTISRDNSKNTLYLQMNSLRAEDTAVYYCARSLARTTAMDYWGEGTLVTVSSASTKGPSVFPLAPSSKSTSGGTAALGCLVKDYFPEPVTVSWNSGALTSGVHTFPAVLQSSGLYSLSSVVTVPSSSLGTQTYICNVNHKPSNTKVDKKVEPKSCDKTHTCPPCPAPELRGGPKVFLFPPKPKDTLYITREPEVTCVVVDVSHEDPEVKFNWYVDGVEVHNAKTKPREEQYNSTYRVVSVLTVLHADWLNGKEYKCKVSNKALPAPIEKTISKAKGQPREPQVYTLPPSRDELTKNQVSLTCLVKGFYPSDIAVEWESNGQPENNYKTTPPVLDSDGSFFLYSKLTVDKSRWQQGNVFSCSVMHEALDYHVTKKELSLSP light: not shown | 59 nM
13 | IgG1-F1417 (antibody) heavy: QVQLQESGPGLVKPSETLSLTCAVSGHSISHDHAWSWVRQPPGEGLEWIGFISYSGITNYNPSLQGRVTISRDNSKNTLYLQMNSLRAEDTAVYYCARSLARTTAMDYWGEGTLVTVSSASTKGPSVFPLAPSSKSTSGGTAALGCLVKDYFPEPVTVSWNSGALTSGVHTFPAVLQSSGLYSLSSVVTVPSSSLGTQTYICNVNHKPSNTKVDKKVEPKSCDKTHTCPPCPAPELRGGPKVFLFPPKPKDTLYITREPEVTCVVVDVSHEDPEVKFNWYVDGVEVHNAKTKPREEQYNSTYRVVSVLTVLHQDWLNGKEYKCKVSNKALPAPIEKTISKAKGQPREPQVYTLPPSRDELTKNQVSLTCLVKGFYPSDIAVEWESNGQPENNYKTTPPVLDSDGSFFLYSKLTVDKSRWQQGNVFSCSVMHEALDWHVTKKELSLSP light: not shown | 59 nM
